Target: monovalent murine IL-2 fusion toxin (DT390-mIL-2-6xHis)
Test: flow cytometry on CTLL-2 cells

B1: murine IL-2 receptor on murine CD25+ CTLL-2 cells (receptor)
chain 1: ELCLYDPPEVPNATFKALSYKNGTILNCECKRGFRRLKELVYMRCLGNSWSSNCQCTSNSHDKSRKQVTAQLEHQKEQQTTTDMQKPTQSMHQENLTGHCREPPPWKHEDSKRIYHFVEGQSVHYECIPGYKALQRGPAISICKMKCGKTGWTQPQLTCVDEREHHRFLASEESQGSRNSSPESETSCPITTTDFPQPTETTAMTETFVLTMEYKVAVASCLFLLISILLLSGLTWQHRWRKSRRTI
chain 2: AVKNCSHLECFYNSRANVSCMWSHEEALNVTTCHVHAKSNLRHWNKTCELTLVRQASWACNLILGSFPESQSLTSVDLLDINVVCWEEKGWRRVKTCDFHPFDNLRLVAPHSLQVLHIDTQRCNISWKVSQVSHYIEPYLEFEARRRLLGHSWEDASVLSLKQRQQWLFLEMLIPSTSYEVQVRVKAQRNNTGTWSPWSQPLTFRTRPADPMKEILPMSWLRYLLLVLGCFSGFFSCVYILVKCRYLGPWLKTVLKCHIPDPSEFFSQLSSQHGGDLQKWLSSPVPLSFFSPSGPAPEISPLEVLDGDSKAVQLLLLQKDSAPLPSPSGHSQASCFTNQGYFFFHLPNALEIESCQVYFTYDPCVEEEVEEDGSRLPEGSPHPPLLPLAGEQDDYCAFPPRDDLLLFSPSLSTPNTAYGGSRAPEERSPLSLHEGLPSLASRDLMGLQRPLERMPEGDGEGLSANSSGEQASVPEGNLHGQDQDRGQGPILTLNTDAYLSLQELQAQDSVHLI
chain 3: WSSKVLMSSANEDIKADLILTSTAPEHLSAPTLPLPEVQCFVFNIEYMNCTWNSSSEPQATNLTLHYRYKVSDNNTFQECSHYLFSKEITSGCQIQKEDIQLYQTFVVQLQDPQKPQRRAVQKLNLQNLVIPRAPENLTLSNLSESQLELRWKSRHIKERCLQYLVQYRSNRDRSWTELIVNHEPRFSLPSVDELKRYTFRVRSRYNPICGSSQQWSKWSQPVHWGSHTVEENPSLFALEAVLIPVGTMGLIITLIFVYCWLERMPPIPPIKNLEDLVTEYQGNFSAWSGVSKGLTESLQPDYSERFCHVSEIPPKGGALGEGPGGSPCSLHSPYWPPPCYSLKPEA
notes: whole, on cells; also called murine CD25+ IL-2 receptor
binding result: binds
